B1: Protein SGT1 homolog (Homo sapiens), Q9Y2Z0-2 (parent)
chain: MAAAAAGTATSQRFFQSFSDALIDEDPQAALEELTKALEQKPDDAQYYCQRAYCHILLGNYCVAVADAKKSLELNPNNSTAMLRKGICEYHEKNYAAALETFTEGQKLDSADANFSVWIKRCQEAQNGSESEVWTHQSKIKYDWYQTESQVVITLMIKNVQKNDVNVEFSEKELSALVKLPSGEDYNLKLELLHPIIPEQSTFKVLSTKIEIKLKKPEAVRWEKLEGQGDVPTPKQFVADVKNLYPSSSPYTRNWDKLVGEIKEEEKNEKLEGDAALNRLFQQIYSDGSDEVKRAMNKSFMESGGTVLSTNWSDVGKRKVEINPPDDMEWKKY

Variants of: B1
Conditions: with skp1_human SKP1, P63208
skp1_human SKP1, P63208, sequence (P63208 whole entry): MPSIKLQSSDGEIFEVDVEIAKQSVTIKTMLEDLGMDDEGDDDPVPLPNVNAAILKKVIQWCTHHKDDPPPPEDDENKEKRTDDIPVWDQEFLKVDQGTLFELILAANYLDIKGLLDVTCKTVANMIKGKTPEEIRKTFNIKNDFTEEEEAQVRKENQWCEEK

Variant	effect of a mutation on the interaction
Y145R	increasing interaction

From IntAct's records for PubMed 18818696
